Laboratory results: article doi:10.1101/2020.06.17.157404

Experiments:
[1] = target: RPL7:CFP (Medicago truncatula); assay: FRET or BRET
[2] = target: CFP:MtRH10 (Medicago truncatula); assay: FRET or BRET

mean CFP lifetime of the donor with the acceptor (2.83 ns +/- 0.03 without) [1]: 2.46 ns
mean CFP lifetime of the donor with the acceptor (2.86 ns +/- 0.02 without) [2]: 2.53 ns
Substance: AeSSP1256:YFP (natural protein)
